Reference: the Immune Epitope Database (IEDB)

Columns and labels:
HLA-A*03:01 [1] = test: IEDB peptide-MHC binding, purified MHC/competitive/fluorescence; filed as Kd, often an IC50 or EC50 that approximates it; ≥ and ≤ were set here for values at or beyond the usual limits of such assays
HLA-A*02:01 [2] = test: IEDB peptide-MHC binding, purified MHC/competitive/radioactivity; filed as Kd, often an IC50 or EC50 that approximates it; ≥ and ≤ were set here for values at or beyond the usual limits of such assays
HLA-A*02:17 = test: as above
HLA-A*03:01 [3] = test: IEDB peptide-MHC binding, purified MHC/competitive/fluorescence; ≥ and ≤ were set here for values at or beyond the usual limits of such assays
HLA-A*11:01 = test: as above
HLA-B*15:01 [4] = test: as above
HLA-A*02:02 = test: IEDB peptide-MHC binding, purified MHC/competitive/radioactivity; filed as Kd, often an IC50 or EC50 that approximates it; ≥ and ≤ were set here for values at or beyond the usual limits of such assays
HLA-A*02:03 = test: as above
HLA-A*02:06 = test: as above
HLA-A*68:02 = test: as above
HLA-A*01:01 [5] = test: IEDB peptide-MHC binding, purified MHC/direct/fluorescence; filed as Kd, often an IC50 or EC50 that approximates it; ≥ and ≤ were set here for values at or beyond the usual limits of such assays; conditions: source organism: Homo sapiens
HLA-A*02:01 [6] = test: IEDB peptide-MHC binding, purified MHC/competitive/fluorescence; filed as Kd, often an IC50 or EC50 that approximates it; ≥ and ≤ were set here for values at or beyond the usual limits of such assays; conditions: source organism: Homo sapiens
HLA-A*69:01 [7] = test: as above; conditions: source organism: Homo sapiens
HLA-B*18:01 = test: as above; conditions: source organism: Homo sapiens
HLA-B*27:03 = test: as above; conditions: source organism: Homo sapiens
HLA-B*39:01 = test: as above; conditions: source organism: Homo sapiens
HLA-B*46:01 = test: as above; conditions: source organism: Homo sapiens
HLA-B*51:01 = test: as above; conditions: source organism: Homo sapiens
HLA-B*57:01 = test: as above; conditions: source organism: Homo sapiens
HLA-A*02:01 [8] = test: IEDB peptide-MHC binding, purified MHC/competitive/fluorescence; ≥ and ≤ were set here for values at or beyond the usual limits of such assays
HLA-A*69:01 [9] = test: IEDB peptide-MHC binding, purified MHC/direct/fluorescence; filed as Kd, often an IC50 or EC50 that approximates it; ≥ and ≤ were set here for values at or beyond the usual limits of such assays; conditions: source organism: dengue virus type 3
HLA-A*01:01 [10] = test: IEDB peptide-MHC binding, purified MHC/competitive/radioactivity; filed as Kd, often an IC50 or EC50 that approximates it; ≥ and ≤ were set here for values at or beyond the usual limits of such assays; conditions: source organism: Lassa virus Josiah
HLA-A*26:01 = test: as above; conditions: source organism: Lassa virus Josiah
HLA-A*29:02 = test: as above; conditions: source organism: Lassa virus Josiah
HLA-A*30:01 = test: as above; conditions: source organism: Lassa virus Josiah
HLA-A*30:02 = test: as above; conditions: source organism: Lassa virus Josiah
HLA-A*32:01 = test: as above; conditions: source organism: Lassa virus Josiah
HLA-B*08:01 = test: as above; conditions: source organism: Dengue virus 3 Sri Lanka/1266/2000
HLA-B*15:01 [11] = test: as above; conditions: source organism: Dengue virus 3 Sri Lanka/1266/2000
HLA-A*24:02 = test: IEDB peptide-MHC binding, purified MHC/competitive/fluorescence; ≥ and ≤ were set here for values at or beyond the usual limits of such assays
HLA-B*07:02 = test: IEDB peptide-MHC binding, purified MHC/competitive/radioactivity; filed as Kd, often an IC50 or EC50 that approximates it; ≥ and ≤ were set here for values at or beyond the usual limits of such assays; conditions: source organism: Dengue virus 2 Jamaica/1409/1983
[12] = source organism: Dengue virus 2 Jamaica/1409/1983
[13] = source organism: Zaire ebolavirus
[14] = source organism: Trypanosoma cruzi
[15] = source organism: Dengue virus 1 Brazil/97-11/1997
[16] = source organism: Dengue virus 4 Philippines/H241/1956
[17] = source organism: Dengue virus 3 Martinique/1243/1999
[18] = source organism: Dengue virus 3 China/80-2/1980
[19] = source organism: Vaccinia virus Copenhagen
[20] = source organism: Dengue virus 3 Sri Lanka/1266/2000
[21] = source organism: Lassa virus Josiah
[22] = source organism: Vaccinia virus
[23] = source organism: Dengue virus 1 Singapore/S275/1990

## KMARAGLGK
HLA-A*03:01 [1]; source organism: Burkholderia vietnamiensis G4
  Kd: 20.2 nM

## ILIGVIITWI
HLA-A*02:01 [2]; [12]
  Kd: 91.5 nM
HLA-A*02:17; [12]
  Kd: 17600 nM

## KAALSSLAK
HLA-A*03:01 [3]; [13]
  IC50: 5420 nM
HLA-A*11:01; [13]
  IC50: 483 nM
HLA-B*15:01 [4]; [13]
  IC50: ≥ 110000 nM

## FLHKRFTLV
HLA-A*02:01 [2]; [14]
  Kd: 0.614 nM
HLA-A*02:02; [14]
  Kd: 0.256 nM
HLA-A*02:03; [14]
  Kd: 0.116 nM
HLA-A*02:06; [14]
  Kd: 1.37 nM
HLA-A*68:02; [14]
  Kd: 1310 nM

## MVTRFESLK
HLA-A*03:01 [1]; source organism: Influenza A virus (A/Swine/Minnesota/55551/2000(H1N2))
  Kd: 163 nM

## YVSAIAQAKA
HLA-A*68:02; [15]
  Kd: 22 nM

## VLWEGGHDL
HLA-A*02:01 [2]; [16]
  Kd: 14.3 nM
HLA-A*02:17; [16]
  Kd: 453 nM

## VTSSVSSGY
HLA-A*01:01 [5]
  Kd: 5.4 nM
HLA-A*02:01 [6]
  Kd: ≥ 20000 nM
HLA-A*69:01 [7]
  Kd: ≥ 20000 nM
HLA-B*18:01
  Kd: ≥ 20000 nM
HLA-B*27:03
  Kd: ≥ 20000 nM
HLA-B*39:01
  Kd: ≥ 20000 nM
HLA-B*46:01
  Kd: ≥ 20000 nM
HLA-B*51:01
  Kd: ≥ 20000 nM
HLA-B*57:01
  Kd: ≥ 20000 nM

## GMFRTVGQL
HLA-A*68:02; source organism: Homo sapiens
  Kd: ≥ 60000 nM

## LLILCVTQV
HLA-A*02:01 [2]; [12]
  Kd: 27.2 nM
HLA-A*02:03; [12]
  Kd: 7.56 nM
HLA-A*02:17; [12]
  Kd: 5970 nM

## YLALLAAFKV
HLA-A*02:01 [2]; [12]
  Kd: 1.62 nM
HLA-A*02:03; [12]
  Kd: 15 nM
HLA-A*02:06; [12]
  Kd: 9.62 nM
HLA-A*02:17; [12]
  Kd: 62.3 nM

## KLSLTKLFS
HLA-A*02:01 [8]; source organism: Variola virus
  IC50: 2940 nM
HLA-A*03:01 [3]; source organism: Variola virus
  IC50: 33600 nM

## VAGLITGGR
HLA-A*02:01 [8]; [13]
  IC50: ≥ 655000 nM
HLA-A*03:01 [3]; [13]
  IC50: ≥ 104000 nM
HLA-A*11:01; [13]
  IC50: 26100 nM

## KVHAVLTEK
HLA-A*03:01 [1]; source organism: Vibrio parahaemolyticus K5030
  Kd: 20.6 nM

## ILTDGPERV
HLA-A*69:01 [9]
  Kd: ≥ 20000 nM
HLA-A*02:03; [17]
  Kd: 130 nM
HLA-A*02:17; [18]
  Kd: 8970 nM

## CLRIPMTDH
HLA-A*03:01 [1]; source organism: Listeria monocytogenes EGD-e
  Kd: ≥ 20000 nM

## LQLPRDRFK
HLA-A*03:01 [3]; [13]
  IC50: 5420 nM
HLA-A*11:01; [13]
  IC50: 1760 nM

## SKRERQLAK
HLA-A*03:01 [3]; [19]
  IC50: 30400 nM

## VIFILLMLV
HLA-A*02:03; [17]
  Kd: 171 nM
HLA-A*02:06; [17]
  Kd: 2350 nM
HLA-A*02:17; [18]
  Kd: 914 nM

## CLMMILPAAL
HLA-A*02:01 [2]; [20]
  Kd: 15.4 nM
HLA-A*02:03; [20]
  Kd: 39 nM
HLA-A*02:17; [20]
  Kd: 170 nM

## CAGDFAFHK
HLA-A*03:01 [3]; [13]
  IC50: 63900 nM
HLA-A*11:01; [13]
  IC50: 1390 nM

## NTTGKLIWK
HLA-A*03:01 [3]; [13]
  IC50: 24700 nM
HLA-A*11:01; [13]
  IC50: 1040 nM

## DLYEEEMREL
HLA-A*68:02; source organism: Homo sapiens
  Kd: 13500 nM

## QVPKLLLWF
HLA-A*02:01 [8]; source organism: Variola virus
  IC50: 2060 nM
HLA-B*15:01 [4]; source organism: Variola virus
  IC50: ≥ 371000 nM

## LMMILPAALA
HLA-A*02:01 [2]; [20]
  Kd: 11 nM
HLA-A*02:03; [20]
  Kd: 98.8 nM
HLA-A*02:17; [20]
  Kd: 1840 nM

## LISIFLHLV
HLA-A*01:01 [10]
  Kd: 1910 nM
HLA-A*02:01 [2]; [21]
  Kd: 47.2 nM
HLA-A*02:02; [21]
  Kd: 11.1 nM
HLA-A*02:03; [21]
  Kd: 20.8 nM
HLA-A*02:06; [21]
  Kd: 80.4 nM
HLA-A*26:01
  Kd: 10300 nM
HLA-A*29:02
  Kd: 11800 nM
HLA-A*30:01
  Kd: 1170 nM
HLA-A*30:02
  Kd: 9090 nM
HLA-A*32:01
  Kd: 6700 nM
HLA-A*68:02; [21]
  Kd: 65.2 nM

## LAIPPTAGV
HLA-A*68:02; [17]
  Kd: 3.16 nM

## LLGLWGFAAL
HLA-A*02:01 [2]; [14]
  Kd: 222 nM
HLA-A*02:02; [14]
  Kd: 28.2 nM
HLA-A*02:03; [14]
  Kd: 36 nM
HLA-A*02:06; [14]
  Kd: 466 nM
HLA-A*68:02; [14]
  Kd: ≥ 125000 nM

## RLITVNPIV
HLA-A*02:03; [12]
  Kd: 62.7 nM
HLA-A*02:17; [12]
  Kd: 621 nM

## YQLWTALVSL
HLA-A*02:06; [20]
  Kd: 5.87 nM
HLA-A*02:17; [18]
  Kd: 91.4 nM
HLA-B*08:01
  Kd: 974 nM
HLA-B*15:01 [11]
  Kd: 191 nM

## MMYTVSLGH
HLA-A*03:01 [1]; source organism: Vibrio parahaemolyticus AQ3810
  Kd: 1.2 nM

## VQRQIQVHA
HLA-A*02:01 [8]; [13]
  IC50: 45500 nM
HLA-B*15:01 [4]; [13]
  IC50: 13500 nM

## LFGIKCIKK
HLA-A*03:01 [3]; [22]
  IC50: 31700 nM
HLA-A*11:01; [22]
  IC50: 8170 nM

## GAMVEYVSA
HLA-A*02:01 [8]; [19]
  IC50: 33400 nM
HLA-B*15:01 [4]; [19]
  IC50: 25500 nM

## FLMVLLIPEP
HLA-A*02:01 [2]; [16]
  Kd: 31.4 nM
HLA-A*02:17; [16]
  Kd: ≥ 44700 nM

## TLIASLVMLL
HLA-A*02:01 [2]; [16]
  Kd: 49.4 nM
HLA-A*02:03; [16]
  Kd: 28.6 nM
HLA-A*02:17; [16]
  Kd: 57.9 nM

## WMTTEDMLAV
HLA-A*02:01 [2]; [12]
  Kd: 82.4 nM
HLA-A*02:03; [12]
  Kd: 20.4 nM
HLA-A*02:06; [12]
  Kd: 25.1 nM
HLA-A*02:17; [12]
  Kd: 2510 nM

## AQREIFSAW
HLA-A*24:02; source organism: Variola virus
  IC50: 38.6 nM
HLA-B*15:01 [4]; source organism: Variola virus
  IC50: 6520 nM

## MVSILASSL
HLA-A*68:02; [12]
  Kd: 134 nM
HLA-B*07:02
  Kd: 1010 nM

## KLSYRNKPS
HLA-A*02:01 [8]; [22]
  IC50: ≥ 196000 nM
HLA-A*03:01 [3]; [22]
  IC50: ≥ 282000 nM

## IIFILLMLV
HLA-A*02:01 [2]; [23]
  Kd: 43.7 nM
HLA-A*02:03; [15]
  Kd: 217 nM
HLA-A*02:06; [15]
  Kd: 1170 nM
HLA-A*02:17; [23]
  Kd: 328 nM

## TVAANEMGL
HLA-A*68:02; [15]
  Kd: 66.8 nM

## GISRNTVKR
HLA-A*03:01 [1]; source organism: Escherichia coli 536
  Kd: ≥ 20000 nM

## QVFGTAYGV
HLA-A*02:06; [15]
  Kd: 7.26 nM
HLA-A*68:02; [15]
  Kd: 0.95 nM

## QTNAMVTLR
HLA-A*03:01 [3]; [13]
  IC50: 16200 nM
HLA-A*11:01; [13]
  IC50: 1200 nM

## QQTNAMVTL
HLA-A*02:01 [8]; [13]
  IC50: 38500 nM
HLA-A*24:02; [13]
  IC50: 59100 nM
HLA-B*15:01 [4]; [13]
  IC50: ≥ 76000 nM
